# In patent US20190211071A1 (NATIONAL UNIVERSITY OF SINGAPORE, published 2019):
# Positions of bridges follow the written chain, without caps; N, C: chain ends. No end group written: not given here.
# Experiments:
# rat NPR-A [1] = biological target: T1, rat NPR-A (rat, UniProt P18910 29-1057); assay: cell-based or functional assay
# T1 sequence (looked up): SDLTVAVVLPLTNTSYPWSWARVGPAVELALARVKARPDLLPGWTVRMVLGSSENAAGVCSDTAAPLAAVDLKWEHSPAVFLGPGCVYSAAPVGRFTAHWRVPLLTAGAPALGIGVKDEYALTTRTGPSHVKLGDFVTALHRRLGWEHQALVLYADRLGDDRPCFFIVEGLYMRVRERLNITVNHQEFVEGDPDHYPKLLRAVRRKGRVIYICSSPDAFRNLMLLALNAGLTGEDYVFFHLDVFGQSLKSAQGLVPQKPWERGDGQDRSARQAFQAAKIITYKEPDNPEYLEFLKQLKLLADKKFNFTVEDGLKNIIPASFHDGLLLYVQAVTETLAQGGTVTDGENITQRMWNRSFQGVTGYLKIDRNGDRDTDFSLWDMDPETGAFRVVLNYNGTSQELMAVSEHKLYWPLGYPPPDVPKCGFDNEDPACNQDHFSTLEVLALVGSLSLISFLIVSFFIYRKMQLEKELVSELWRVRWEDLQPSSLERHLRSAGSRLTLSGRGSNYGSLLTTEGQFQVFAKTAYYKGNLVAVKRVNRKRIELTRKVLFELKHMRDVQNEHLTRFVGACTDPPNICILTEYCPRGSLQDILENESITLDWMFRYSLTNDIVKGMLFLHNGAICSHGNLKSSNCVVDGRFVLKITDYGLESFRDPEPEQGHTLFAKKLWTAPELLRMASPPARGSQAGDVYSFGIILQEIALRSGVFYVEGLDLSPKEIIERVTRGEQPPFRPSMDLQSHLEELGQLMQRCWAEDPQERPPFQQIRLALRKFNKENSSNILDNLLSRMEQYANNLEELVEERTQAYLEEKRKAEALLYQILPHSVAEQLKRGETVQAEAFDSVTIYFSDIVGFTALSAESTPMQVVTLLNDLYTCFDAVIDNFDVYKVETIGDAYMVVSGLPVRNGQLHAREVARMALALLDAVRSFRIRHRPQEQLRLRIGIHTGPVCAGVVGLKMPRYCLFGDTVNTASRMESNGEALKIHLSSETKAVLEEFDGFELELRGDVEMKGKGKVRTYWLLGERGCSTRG
# rat NPR-A [2] = biological target: T1, rat NPR-A; assay: cell-based or functional assay; remark: listed apart in the source
Binder,NPR-A activation potency IC50 (rat NPR-A [1]) [nM],NPR-A activation potency: Ratio compared ANP (rat NPR-A [1]) [ratio],NPR-A activation potency: Ratio compared wild type NPs (rat NPR-A [1]) [ratio],Rate of generation of cGMP (pmol cGMP/pmol peptide) (rat NPR-A [1]),Rate of generation of cGMP: Ratio compared ANP (rat NPR-A [1]) [ratio],Rate of generation of cGMP: Ratio compared wild type NPs (rat NPR-A [1]) [ratio],time to produce similar levels of cGMP (time-chase at EC50 concentration) (rat NPR-A [2]) [min],activation kinetics compared to K-Ring (rat NPR-A [2]) [fold],potency of cGMP response compared to K-Ring (rat NPR-A [2]) [fold]
SLRRSSCFDRRMDRIGAQSDLGCNSFRY (disulfide 7-23 (inferred)) [^DRDANP],45.2,2.6,2.6,0.38,21,21,–,–,–
GLLISCFGRRIDRISHTSDIGCRH (disulfide 6-22) [^GRDK-Ring],50.7,2.9,-4.8,0.113,70.5,5,–,–,–
GLLISCFDRRIDRISHTSGIGCRH (disulfide 6-22) [^DRGK-Ring],694,40.1,2.8,0.007,1140,3.2,–,–,–
GLLISCFDRRIDRISHTSDIGCRH (disulfide 6-22) [K-Ring],244,14.1,1,0.0228,350,1,30,–,–
GLLISCFDRRIDRISHTSDIGCNSFRY (disulfide 6-22) [K-Ring^NSFRY],43.8,2.5,-5.6,0.31,25.7,13.6,–,–,–
SLRRSSCFDGRMDRIGAQSDLGCNSFRY (disulfide 7-23 (inferred)) [^DGDANP],135,7.8,7.8,0.14,56.9,56.9,–,–,–
GLLISCFDGRIDRISHTSDIGCRH (disulfide 6-22) [^DGDK-Ring],866,50.1,3.6,0.005,1590,4.6,–,–,–
GLLISCFGRRIDRISHTSGIGCRH (disulfide 6-22) [^GRGK-Ring],87.7,5.1,-2.8,0.19,41.9,8.3,–,3,4
